# According to paper PMC11932488, “Lytic coelomocyte death is tuned by cleavage but not phosphorylation of MLKL in echinoderms” (PLOS Pathogens, 2025):
# Molecular target: the molecule itself
# Experiment: cross-linking; coelomocytes infected with 10^8 CFU/ml AJ01 for 3 h; Triton X-100 insoluble pellet cross-linked 30 min at room temperature (DSS by the legend); Western blot
protein,measurement,value
"AjCASP-1 (cysteine-aspartic specific protease-1 of Apostichopus japonicus), endogenous (enzyme, UniProt A0A6G5QC75 1-299, looked up, AjCASP-1, caspase-1 of Apostichopus japonicus, MH807451; 34 kDa monomer, self-cleaved to p20 (25 kDa) after AJ01 infection; In infected cells both the uncleaved and the self-cleaved form are present; also called AjCaspase-1; source: endogenous, A. japonicus coelomocyte lysate (uninfected or AJ01-infected)) MAVADIPSSDYVFRERKRPIRGDEPSAIHFNLRYDMQQQTRGFAHIFNNDIFQKMDDRKGTRKDRDNLKETFTNLGFKVRVHDDCTASEIRDILLEASKVDHSDFDCFLCVFLTHGDDGIIYGSDGEPESFKGNGSVHSTNRTWLRLNDDVFDIFRGNNCSTLIGKPKIFIIQACRGGTAEFSAMIGSAATDYEEPLETSVGVKVTIPTEADFLISYSSSEGYYSFRELYKGTWFIQDLTRVLNEFGRNGDFIRMLTVVNKLVSERAIQGSGKPELEGKKQMPCFLSKLTRQLHLTAQT",stoichiometry N,2
